Source: paper PMC6279937, “Biochemical Characterization of Aspergillus fumigatus AroH, a Putative Aromatic Amino Acid Aminotransferase” (Frontiers in Molecular Biosciences, 2018)
Each block holds one molecule with its values, some of them ahead of it.

Key:
AroH = biological target: T1, AroH (Aspergillus fumigatus, UniProt Q4X0F7); assay: intrinsic fluorescence quenching of apoenzyme, tight-binding fit; settings: read-out: KD(PLP)
T1 construct: gene AFUA_2G13630; entire AroH cDNA with C-terminal 6xHis tag (kept) in pET22b, synthesized by GenScript, expressed in E. coli BL21(DE3); subunit mass 59480 Da; homodimer with 1 PLP per subunit
T1 sequence (Q4X0F7 1-526): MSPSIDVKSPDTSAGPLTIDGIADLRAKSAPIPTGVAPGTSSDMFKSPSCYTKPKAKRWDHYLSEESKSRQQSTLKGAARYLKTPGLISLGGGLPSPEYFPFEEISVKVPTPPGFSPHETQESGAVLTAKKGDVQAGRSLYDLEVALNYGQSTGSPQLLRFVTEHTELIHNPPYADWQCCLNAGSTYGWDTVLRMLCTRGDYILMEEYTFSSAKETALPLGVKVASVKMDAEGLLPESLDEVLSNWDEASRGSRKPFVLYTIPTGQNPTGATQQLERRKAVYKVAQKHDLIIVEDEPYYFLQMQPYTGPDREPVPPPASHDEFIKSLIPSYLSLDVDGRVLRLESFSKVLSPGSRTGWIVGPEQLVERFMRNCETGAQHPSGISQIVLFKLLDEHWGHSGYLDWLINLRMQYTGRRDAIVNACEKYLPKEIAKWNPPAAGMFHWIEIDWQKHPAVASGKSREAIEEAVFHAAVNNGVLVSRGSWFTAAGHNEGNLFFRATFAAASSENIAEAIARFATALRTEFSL

[1] = biological target: Aspergillus fumigatus AroH, recombinant, with a C-terminal 6xHis tag (Aspergillus fumigatus); assay: SEC; 5 uM holoAroH on Superdex 200 10/300 GL, 0.1 M potassium phosphate pH 7.4, 0.5 ml/min; elution volume compared with molecular weight standards
purified protein [2] = substrate: N[C@@H](CCC(=O)O)C(=O)O; assay: purified protein; format: biochemical, Aspergillus fumigatus; settings: co-substrate α-ketoadipate, 100 μM PLP, 66 mM potassium phosphate pH 7.4
purified protein [3] = substrate: N[C@@H](CCCC(=O)O)C(=O)O; assay: purified protein; format: biochemical, Aspergillus fumigatus; settings: co-substrate α-ketoglutarate, 100 μM PLP, 66 mM potassium phosphate pH 7.4
purified protein [4] = substrate: N[C@@H](Cc1c[nH]c2ccccc12)C(=O)O; assay: purified protein; format: biochemical, Aspergillus fumigatus; settings: co-substrate 1 mM α-ketoglutarate, 100 μM PLP, 66 mM potassium phosphate pH 8.2, 25°C, pH 8.2
purified protein [5] = substrate: N[C@@H](Cc1ccc(O)cc1)C(=O)O; assay: purified protein; format: biochemical, Aspergillus fumigatus; settings: co-substrate 1 mM α-ketoglutarate, 100 μM PLP, 66 mM potassium phosphate pH 8.2, 25°C, pH 8.2
purified protein [6] = substrate: N[C@@H](Cc1ccccc1)C(=O)O; assay: purified protein; format: biochemical, Aspergillus fumigatus; settings: co-substrate 1 mM α-ketoglutarate, 100 μM PLP, 66 mM potassium phosphate pH 8.2 (Figure 5 legend says pH 7.4), 25°C
purified protein [7] = substrate: Nc1ccccc1C(=O)C[C@H](N)C(=O)O; assay: purified protein; format: biochemical, Aspergillus fumigatus; settings: co-substrate α-ketoglutarate, 100 μM PLP, 66 mM potassium phosphate pH 7.4
purified protein [8] = substrate: O=C(O)CCC(=O)C(=O)O; assay: purified protein; format: biochemical, Aspergillus fumigatus; settings: co-substrate 20 mM L-tryptophan, 100 μM PLP, 66 mM potassium phosphate pH 8.2, 25°C, pH 8.2
purified protein [9] = substrate: O=C(O)CCCC(=O)C(=O)O; assay: purified protein; format: biochemical, Aspergillus fumigatus; settings: co-substrate L-glutamate, 100 μM PLP, 66 mM potassium phosphate pH 7.4

Molecule: Cc1ncc(COP(=O)(O)O)c(C=O)c1O [PLP]
Kd (AroH): 100 ± 20 nM

stoichiometry N [1]: 2
Molecule: Aspergillus fumigatus AroH, recombinant, with a C-terminal 6xHis tag (enzyme)

B1: AroH (Aspergillus fumigatus Af293) (protein)
chain: T1 sequence (Q4X0F7 1-526)
notes: entire AroH cDNA with C-terminal 6xHis tag (kept) in pET22b, synthesized by GenScript, expressed in E. coli BL21(DE3); subunit mass 59480 Da; homodimer with 1 PLP per subunit
Km (purified protein [2]): 10000 ± 1000 µM
kcat (purified protein [2]): 10.3 ± 0.3 s⁻¹
kcat/Km (purified protein [2]): 960 ± 80 M⁻¹ s⁻¹
Km (purified protein [3]): 3300 ± 400 µM
kcat (purified protein [3]): 13.2 ± 0.5 s⁻¹
kcat/Km (purified protein [3]): 4000 ± 400 M⁻¹ s⁻¹
Km (purified protein [4]): 2100 ± 300 µM
kcat (purified protein [4]): 3 ± 0.1 s⁻¹
kcat/Km (purified protein [4]): 1400 ± 200 M⁻¹ s⁻¹
Km (purified protein [5]): 500 ± 100 µM
kcat (purified protein [5]): 4 ± 0.3 s⁻¹
kcat/Km (purified protein [5]): 8000 ± 2000 M⁻¹ s⁻¹
Km (purified protein [6]): 1400 ± 200 µM
kcat (purified protein [6]): 7.4 ± 0.2 s⁻¹
kcat/Km (purified protein [6]): 5200 ± 600 M⁻¹ s⁻¹
Km (purified protein [7]): 9000 ± 2000 µM
kcat (purified protein [7]): 4.1 ± 0.4 s⁻¹
kcat/Km (purified protein [7]): 400 ± 100 M⁻¹ s⁻¹
Km (purified protein [8]): 180 ± 20 µM
kcat (purified protein [8]): 2.5 ± 0.1 s⁻¹
kcat/Km (purified protein [8]): 14000 ± 2000 M⁻¹ s⁻¹
Km (purified protein [9]): 140 ± 30 µM
kcat (purified protein [9]): 12.5 ± 1 s⁻¹
kcat/Km (purified protein [9]): 90000 ± 20000 M⁻¹ s⁻¹
